{
  "source": "paper PMC9005620",
  "about": "“The crystal structure of iC3b-CR3 αI reveals a modular recognition of the main opsonin iC3b by the CR3 integrin receptor” (Nature Communications, 2022)",
  "molecules": {"B1": {"name": "CR3 αI domain (von Willebrand A inserted domain of the αM chain of CR3), residues 126-321, C128S/I316G (domain or fragment)", "chain": "RGSPQEDSDIAFLIDGSGSIIPHDFRRMKEFVSTVMEQLKKSKTLFSLMQYSEEFRIHFTFKEFQNNPNPRSLVKPITQLLGRTHTATGIRKVVRELFNITNGARKNAFKILVVITDGEKFGDPLGYEDVIPEADREGVIRYVIGVGDAFRSEKSRQELNTIASKPPRDHVFQVNNFEALKTIQNQLREKGFAIEG", "modifications": "NHS-PEG4-biotin on random amine groups (only in the SPR where CR3 αI was captured on the streptavidin chip)", "notes": "Made in bacteria, so not glycosylated at Asn224; also called WT; not shown: His6, N-terminal, cleaved"}},
  "key": {"[1]": {"target": "CR3 αI domain (von Willebrand A inserted domain of the αM chain of CR3), residues 126-321, C128S/I316G (human) (UniProt P11215)", "assay": "SPR; Biacore X100; CR3 αI biotinylated (NHS-PEG4-biotin) and captured on a streptavidin chip, ~900 RU; initial single-concentration injections, then 5 injections of iC3b (0.1-10.0 uM) or C3c (0.7-60.0 uM); 10 mM HEPES-NaOH pH 7.4, 100 mM NaCl, 5 mM MgCl2; 25 °C; steady-state model, saturation not reached, apparent KD"}, "iC3b (human)": {"target": "iC3b (human)", "assay": "SPR; iC3b immobilised on a CM5 chip by maleimide coupling via Cys988; αI variants as analyte, 5 injections at 0.32-26.0 μM; 10 mM HEPES-NaOH pH 7.4, 100 mM NaCl, 5 mM MgCl2; 25 °C; steady-state analysis of maximum RU, apparent KD (saturation not reached)"}, "C3c": {"target": "C3c (UniProt P01024 955-1303)", "assay": "SPR; Biacore X100; CR3 αI biotinylated (NHS-PEG4-biotin) and captured on a streptavidin chip, ~900 RU; initial single-concentration injections, then 5 injections of iC3b (0.1-10.0 uM) or C3c (0.7-60.0 uM); 10 mM HEPES-NaOH pH 7.4, 100 mM NaCl, 5 mM MgCl2; 25 °C; steady-state model, saturation not reached, apparent KD", "conditions": "both partners purified"}, "human iC3b (human) [2]": {"target": "human iC3b (human) (UniProt P01024)", "assay": "SEC + other: SAXS; iC3b mixed with CR3 αI at 1:2 molar ratio, Superdex 200 10/300 GL, 20 mM HEPES-NaOH pH 7.5, 200 mM NaCl, 5 mM MgCl2; SAXS in continuous-flow batch mode at 4 °C"}, "human iC3b (human) [3]": {"target": "human iC3b (human) (UniProt P01024)", "assay": "SPR; Biacore X100; iC3b immobilised on CM5 chip by maleimide chemistry through Cys988; αI variants as analyte (5 injections at 0.32-26.0 uM); 10 mM HEPES-NaOH pH 7.4, 100 mM NaCl, 5 mM MgCl2; 25 °C; steady-state analysis, apparent KD"}},
  "data": [
    {"molecule": "human iC3b (from UniProt P01024 749-1303) (complex)", "values": [
      {"measurement": "Kd", "setting": "[1]", "value": 5.2, "unit": "µM"}
    ]},
    {"molecule": "CR3 αI domain variant 2A (R216A/K231A) (from UniProt P11215 142-337) (domain or fragment)", "values": [
      {"measurement": "Kd", "setting": "iC3b (human)", "value": 27.5, "unit": "µM"}
    ]},
    {"molecule": "CR3 αI domain variant 1A (R261A/R293A) (from UniProt P11215 142-337) (domain or fragment)", "values": [
      {"measurement": "Kd", "setting": "iC3b (human)", "value": 16.8, "unit": "µM"}
    ]},
    {"molecule": "CR3 αI domain variant 1A2A (R216A/K231A/R261A/R293A) (from UniProt P11215 142-337) (domain or fragment)", "values": [
      {"measurement": "Kd", "setting": "iC3b (human)", "value": 64.7, "unit": "µM"}
    ]},
    {"molecule": "B1", "values": [
      {"measurement": "Kd", "setting": "C3c", "value": "~39", "unit": "µM"},
      {"measurement": "stoichiometry N", "setting": "human iC3b (human) [2]", "value": 1},
      {"measurement": "Kd", "setting": "human iC3b (human) [3]", "value": 7.1, "unit": "µM"}
    ]}
  ]
}
